The nature of this data set: 14C assay with IPTG-induced recombinant E. coli cells (14CO2 capture from [14C]-carboxyl-labeled dicamba). The following applies: for Dicamba Decarboxylase Activity: IPTG-induced recombinant E. coli cells, [14C]-carboxyl-labeled dicamba, 14CO2 capture; for Enzymatic Detection level: dicamba decarboxylation activity of the protein of the given SEQ ID NO.

We go through 15 molecules from patent US20140287419A1, “Compositions Having Dicamba Decarboxylase Activity and Methods of Use” (priority 2013, published 2014).

B1: 103 (protein)
chain: MAMEIPTEEIKFLKKEDVQNIDLNGMSKKERYEIWRRIPKVELHCHLDLTFSAEFFLKWARKYNLQPNMSDDEILDHYLFTKEGKSLAEFIRKAISVSDLYRDYDFIEDLAKWAVIEKYKEGVVLMEFRYSPTFVSSSYGLDVELIHKAFIKGIKNATELLNNKIHVALICISDTGHAAASIKHSGDFAIKHKHDFVGFDHGGREIDLKDHKDVYHSVRDHGLHLTVHAGEDATLPNLNTLYTAINILNVERIGHGIRVSESDELIELVKKKDILLEVCPISNLLLNNVKSMDTHPIRKLYDAGVKVSVNSDDPGMFLSNINDNYEKLYIHLNFTLEEFMIMNNWAFEKSFVSDDVKSELKALYF
modifications: Plasmodium yoelii yoelii
Take B1: the “Dicamba Decarboxylase Activity” value is “No” and the “Enzymatic Detection level” value is “No”.

B2: 97 (protein, listed as Sphingobium sp.)
chain: MAMMIIDCHGHYTVLPKAHDEWREQQKAAFKAGQPAPPYPEISDDEIRETIEANQLRLIKERGADMTIFSPRASAMAPHVGDQSVAVPWAQACNNLIARVVDLFPETFAGVCMLPQSPEADMTSSIAELERCVNELGFIGCNLNPDPGGGHFKHPPLTDRFWYPFYEKMVELDVPAMIHVSGSCNPAMHATGAYYLAADTIAFMQLLQGNLFADFPTLRFIIPHGGGAVPYHWGRFRGLADMLKQPSLDTLLMNNVFFDTCVYHQPGINLLADVIDNKNILFGSEMVGAVRGIDPTTGHYFDDTKRYIDALDISDQERHAIFEGNTRRVFPRLDAKLKARGL
As for B2, the “Dicamba Decarboxylase Activity” value is recorded as “No” and the “Enzymatic Detection level” value was “No”.

B3: 91 (protein, listed as Botryotinia fuckeliana)
chain: MASFVCNFGKAALATLLLTPSISAADYTPQETVLNSGRPTFYDASTSIPGKIALEEHVGNDLLNGLYTVPYYPNTNEPQYSDSVYIADVGEKMLDIPSRIANMDAANISISVLTFGGPGIQGVFNATYATYAAGYVNDYLYKNYKNNANYTGRFEFWCSNALQEPSKAATELERCVKELGGVGSFVGGYTNNGGINGTANDIVYLDDPSMEPFLEKVVELDVPIYLHPRMPAPSQLLSVKGYEFLGSSPWGFSSETGAHALRLMVSGTLDKYPTLKIVLGHCGEGLPFFLPRIDQRLRHFKKELFNNTLTMEEYWLRNFYVTTAGVQDAGTLVDTIKRTGEDRVMFSVDYPFEDTVEIAGWFDRLEMNTLTKTKLAYENAKALLKLTCYVDAEKRPRIFNKHHVDDIIKHTHSPCIWTLFH
In the case of B3, the “Dicamba Decarboxylase Activity” value is listed as “Low” and the “Enzymatic Detection level” value was “Low”.

B4: 101 (protein, listed as Aquifex aeolicus)
chain: MAQKIALCITGASGVIYGIKLLQVLEELDFSVDLVISRNAKVVLKEEHSLTFEEVLKGLKNVRIHEENDFTSPLASGSRLVHYRGVYVVPCSTNTLSCIANGINKNLIHRVGEVALKERVPLVLLVREAPYNEIHLENMLKITRMGGVVVPASPAFYHKPQSIDDMINFVVGKLLDVLRIEHNLYKRWRG
For the molecule B4, the “Dicamba Decarboxylase Activity” value is reported as “No” and the “Enzymatic Detection level” value is “No”.

B5: 104 (protein)
chain: MANILQEPIDFLKKEELKNIDLSQMSKKERYKIWKRIPKCELHCHLDLCFSADFFVSCIRKYNLQPNLSDEEVLDYYLFAKGGKSLGEFVEKAIKVADIFHDYEVIEDLAKHAVFNKYKEGVVLMEFRYSPTFVAFKYNLDIELIHQAIVKGIKEVVELLDHKIHVALMCIGDTGHEAANIKASADFCLKHKADFVGFDHGGHEVDLKEYKEIFDYVRESGVPLSVHAGEDVTLPNLNTLYSAIQVLKVERIGHGIRVAESQELIDMVKEKNILLEVCPISNVLLKNAKSMDTHPIRQLYDAGVKVSVNSDDPGMFLTNINDDYEELYTHLNFTLEDFMKMNEWALEKSFMDSNIKDKIKNLYF
modifications: Plasmodium Vivax
Consider B5, for which the “Dicamba Decarboxylase Activity” value is listed as “No” and the “Enzymatic Detection level” value is listed as “No”.

B6: 7 (protein, listed as Legionella pneumophila)
chain: MAIVDFETHFITEACIDYLTQRQEVPKLVPELNGAYTMCFTPDVSLFHTSALMEELLSLNEQRLAIMDQAGVTIQVLSLTTINGIDSCPGDENKSTALAREVNDQLYSAIQRHPERFKGFASISPYDVKEGVKELERAISQLGFVGWLTHSNFGEDNYLDDKTYWPLLEAAEGLNIPIYLHPNVPIMREFGKYGFALGGSALGFEFDTALCLMRMILGGVFDAFPKLKIMLGHLGETMPFLMERLDHLYRIPDLKAYRPSIQRIPSEVLRQNVYITTSGRFFVPALRYVLEVMGEDRVLFASDYPMESLLDATRFIQDSDLSNQTKQKIFSINAKNLNLI
As to B6, the “Dicamba Decarboxylase Activity” value is listed as “No” and the “Enzymatic Detection level” value is reported as “No”.

B7: 94 (protein, listed as Bacillus thuringiensis)
chain: MANRGDSNMKSLVGVIMGSTSDWETMKYACDILDELNIPYEKKVVSAHRTPDYMFEYAETARERGLKVIIAGAGGAAHLPGMVAAKTNLPVIGVPVQSKALNGLDSLLSIVQMPGGVPVATVAIGKAGSTNAGLLAAQILGSFHDDIHDALELRREAIEKDVREGSELV
On to B7, for which the “Dicamba Decarboxylase Activity” value is “No” and the “Enzymatic Detection level” value is listed as “No”.

B8: 8 (protein, listed as Metarhizium anisopliae)
chain: MARGKINFEEAFELPTLADSSREQAALYIAPKDLDRYIYHIKHPLGERLQLANSHGIGYTIYSLTVPGIQGIPDQSKAEQHATTVNDWIANEIKDHRDRLGAFAALSMHDAAQAAAELERCVRQHGFHGALLNNYQHAGPDGETYLFYDQPAYDVFWQKCVELDVPVYLHPAAPAGNYYKQMYAQRKYLVGPPLSFANDVSLHLLGLVTNGVFDRFPKLKVVVGHLGEHIPFDFWRISHWLEDVERPLAAGRGDVMSKKDLLYYFKNNIWVTTSGHFSTPTVRYVADYLGPERIMFSVDTPYETIENGVGWFDGEEDALTRALGGEDGYKKVARENAKKLFKLTKYHDCDA
For B8, the “Dicamba Decarboxylase Activity” value is given as “Low” and the “Enzymatic Detection level” value is reported as “Low”.

B9: 99 (protein, listed as Ralstonia solanacearum)
chain: MAIIDCHGHFTTAPTALEDWRKRQIANLATPALGPSPDDLKISDDALTEAIRANQLRLMQARGSDLTIFSPRASFMAHHIGDFHTSATWAAICNALCHRVSQLFPDHFVGAAMLPQSPGVDIRTCIPELARCIVDYGFVGVNLNPDPSGGHWTSPPLSDPYWFPLYEKLVEYDVPAMIHVSTSCNACFHTTGAHYLNADTTAFMQVLTSDLFRRFPTLKFVIPHGGGAVPYHWGRFRGLAQELKTPPLQEHLLHNVFFDTCVYHQPGIDLLTRVIPVDNILFASEMIGAVRGIDPETGHPFDDTRRYIDQAHTLSAEDRHKIYEGNARRVYPRLDARLKARGR
For the molecule B9, the “Dicamba Decarboxylase Activity” value is recorded as “No” and the “Enzymatic Detection level” value is reported as “No”.

B10: 102 (protein, listed as Lactobacillus plantarum)
chain: MATKTFKTLDDFLGTHFIYTYDNGWEYEWYAKNDHTVDYRIHGGMVAGRWVTDQKADIVMLTEGIYKISWTEPTGTDVALDFMPNEKKLHGTIFFPKWVEEHPEITVTYQNEHIDLMEQSREKYATYPKLVVPEFANITYMGDAGQNNEDVISEAPYKEMPNDIRNGKYFDQNYHRLNK
Consider B10, for which the “Dicamba Decarboxylase Activity” value is reported as “No” and the “Enzymatic Detection level” value is recorded as “No”.

B11: 105 (protein)
chain: MAIDFHVHLDLYPDPVAVARACEERQLTVLSVTTTPAAWRGTLALAAGRPHVWTALGFHPEVVSERAADLPWFDRYLPETRFVGEVGLDGSPSLRGTWTQQFAVFQHILRRCEDHGGRILSIHSRRAESEVLNCLEANPRSGTPILHWYSGSVTELRRAISLGCWFSVGPTMVRTQKGAALIRSMPRDRVLTETDGPFLELDGQAALPWDVKSVVEGLSKIWQIPASEVERIVKENVSRLLGTVR
modifications: Deinococcus radiodurans
For B11, the “Dicamba Decarboxylase Activity” value is listed as “No” and the “Enzymatic Detection level” value is given as “No”.

B12: 96 (protein)
chain: MAPLIVDVHTHVYPPAYMQMLRSRKTVPYVHDPSNNRDPRLIILSSDDDASIPLDQRGRPVDSSYWDINVKLSFMRQHGINCSVISLANPWLDFVEPAEAQMWAERINDDLEKTCATVNKAADPGNTLTLDQKETLFAFGALPLSAPSSESVVAEIKRLKTLEHLRGVIMGTSGLGKGLDDARLDPVWEALQETDMLMFLHPHYGLPEEAYGGPETTGRYGHVLPLALGFPLETTIAVTRMLLSGVFDRFPRLKILLAHSGGTLPFLAGRIESCILHERKFISGGGDVQGPQRSVWDVLKTNIYLDAVVYGKPGLEAAMTASGSDRLLFGTDHPFFPPLDSKDNSWPSVTTNYQAIHATFDTNSKTVADVLGGNAARILNLK
modifications: Aspergillus nidulans
Regarding B12, the “Dicamba Decarboxylase Activity” value was “No” and the “Enzymatic Detection level” value is listed as “No”.

B13: 98 (protein)
chain: MAIIDCHGHYTTAPAAHDAFRKAQIAHHDDPQQPAPQYPHISDDALRESIEQHQLRLLRERGADMTIFSPRASTMAHHIGNEAVSQVWTQRCNDLIARVVQLYPHTFIGVCQLPQSPGVPISHSIAELERCVNELGFVGCNLNPDPSGGHWNGVPLTDRAWYPFFEKMVELDVPAMVHVSGSCNANFHATGAHYLNADTTAFMQFLEGDLFRDFPSLRFIIPHGGGAVPYHWGRFRGLADMLGKPPLATHVMRNVFFDTCVYHQPGIDLLFEVIDIDNILFGSEMVGAVRGIDPQTGHYFDDTKRYIDALTISDADKRKVFEGNARRVYPRLDAQLRARGL
modifications: Xanthomonas campestris pv.
For B13, the “Dicamba Decarboxylase Activity” value is recorded as “No” and the “Enzymatic Detection level” value was “No”.

B14: 92 (protein, listed as Chitinophaga pinensis)
chain: MARIVTLEEHVSFPEMTALLPEEILKNRKQSGAALQMQEKLADITGERLTSMKAAGISMQVLSVENTDVYLLPDSLAPAFAAKYNDLLADKISSHSDAFAAFAMLPMTVPEAAADELERAVKTHGFCGAMIKGLINGVFLDAPKFAPVFACAEKLGVPLYIHPGIPPKEVIDAYYSNVGDTKGPNEAIACYGWGWHSETAIHILRLLAAGIFDKYPQLNIIIGHMGEMLPMMWERSNRVFQPGNNGKNQRTLIETFRKQLYITTSGIFTQPPLQIAIDTIGIDNILFSIDYPFSSNQMGIDFLTKAALPAEQLAKMAHGNADRILKF
B14: the “Dicamba Decarboxylase Activity” value was “Yes” and the “Enzymatic Detection level” value was “High”.

B15: 93 (protein, listed as Mucilaginibacter paludis)
chain: MAKYGKHITINKNMRIVTLEEHISFPEMADQIPKAALGSFGRSEAMQRIAPKLADITGERLKSMDANGISMQVLSVDSSGVNLLSPQQGPAFATQYNDLIANRIAGFEKRFTAFAHLPMTAPFAAADELERAVKEHHFCGAMIRGLTGDQFLDHPQFAPIFERAQKLDVPIYLHPGLPPKGVADIYYSGLPNYSGMAEALACYGWGWHSETALHVLRLLFSGIFDQYPKLKLVIGHMGEMLPMMMARSEKAFKPGNGGANVRTLTDTFRSQVYLTTSGFFTQPPLKIALDTFGIDHVMFSVDYPFSTNEMGIEFLNEIDLPDEEVARIAHGNADKLLNLKA
On to B15, for which the “Dicamba Decarboxylase Activity” value is “Low” and the “Enzymatic Detection level” value is on record as “Low”.
